For the series, the system named is Saccharomyces cerevisiae. Put plainly: transcriptional activation domain activity (GFP:mCherry ratio, weighted mean of sorted bins, harmonized to initial dataset scale) (arbitrary fluorescence ratio units); higher = stronger transcriptional activation. Particulars: beta-estradiol 1 µM; induction time 4 h. The method in brief: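 Sorting into 8 bins by GFP:mCherry ratio followed a 4-hour hold at 30 °C after cultures were diluted 1:5 into SC with 1 uM beta-estradiol. The yeast diploids carried a GFP reporter and had barcoded protein tiles, fused to an estradiol-inducible synthetic transcription factor, integrated at URA3. Barcodes were then sequenced, and tiles with under 50 reads were removed. Activation activity is the read-weighted mean of bin median fluorescence, averaged across barcodes and linearly mapped onto the initial dataset scale.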

As for “MHKHFVVTLIMFFYFFFLFLLRGRCWNCTPLPTLIPSTASGVLLIVFLSYVVH”, the “transcriptional activation domain activity” value worked out at 26400. “ILNVTVRLNFLTFVLQYLMDTDYLSYYFTPLVSFWFLAIWIIMYAGHTWNKIP”: the “transcriptional activation domain activity” value is 67300. The figure for “PGLVGVFFIFSSPFSGFCFCFCFCLFELIFFFFFFFYYFLSRIGVLTRLSAGF” is 45800. Turning to “SAKEEPGAAETDADTDPEPAAGKKRKRQEDKGEAQEGGSGKKSVGGKKAKQAE”, the “transcriptional activation domain activity” value came to 19200. In the case of “DDTGEEEQPPPASNSSAGVATSTTVVPQQLPARYRLRAFISHKGPSVHSGHYV” it was 29800; in that of “MSHPYRGERVHLQVGQNIWIVALIVLVQIFSTVRSNPGCSLLVSMTAKFWCPR”, 63800. In the case of “FLNNAPDEDPNLNNQWSICDDFSEGRQVNDAFVGGSNIPHTLKGLQKSLRFMN” it was 50800. Regarding “MQDGEHEQRLNGRKLALEAENYIIISTRLQKPCIGVVQVLLLLIIMRTISASD”, the “transcriptional activation domain activity” value came to 79600. The figure for “ASTAGPAAGGSVSAAPKRRGRPPKRKAEPEQGAEAQPAKKPRGRPRKSAVVEA” is 12000; for “EFYLQIPFRVCMGNGRRRDRVLRDMRRAKRYSDAIEAMKRIVWPIVSFRLLLP” it is 63600.

Take “LFTHLCLNPQLLRSISSVIFLPRITAPIHVYLYSILIYLQFKMLLLYTLFHIM”: the “transcriptional activation domain activity” value turned out to be 77200. The figure for “EQKVPEGVKDSWDASSDEEEEETAVKPSKPAAAANGKSPSAPAKAATHAKPAP” is 23500.

As for “GSWMILRILLHQLLDSVQYIPEYKDIAALRYRGPTYYFQELQKAFYHVLDAVP”, the “transcriptional activation domain activity” value worked out at 65200.

With “AEEREAKKRAREEEEEEEAERAERAERAARLRRERAEEARRQAEQKHAEEARQ”, the “transcriptional activation domain activity” value came to 12100. The figure for “QLECFGSTSLGWKSLKLVLRAHALCLLAAAVKEGLFEYSYVRLLADLCLSLEC” is 56200; for “MVPFSAFSFSLVKKFHWSAAFGGSFFLHLFFTNLNAWVFLFYLLLYVFVYQGL” it is 40600; for “SLGCTLVYVAHISYLSLLPRFDYSYNMAFNLTLGLTHNFLWLLYSLPSFCAIP” it is 52300. Consider “LHAGAAADDARTGGGGGGGTGQGRAEGRDRGAEPGAVRGGEPHGRGRAEAGAH”, for which the “transcriptional activation domain activity” value came out at 8730.

Consider “VYILSFYLPSLFPSFFTHSLFFFLHLWSCSTSSQTNMRLPTLAFISLPFVLTF”, for which the “transcriptional activation domain activity” value worked out at 53600. The figure for “TTAETTAPAAETDAAAKVEEAKPAAATTEAKPAAAAPKPAADKKVKRSSTILQ” is 10600. In the case of “SREQPPSGQSRETLQKRVLHVRSVGRVTKGGKIRSASAIVVVGNGNGIGGYGE” it was 38900; in that of “AFVLFLIYLTFFCWLCFATSASWVWSEILSDGQYNESFMPVNYVLLAVLSGII”, 53800; in that of “MKSVVFCFLPLFFFCHSSKANHSSTFISMPPFFSLFFFFFPFSHFPTLSVLFG”, 50600.

On to “RLRVWELGRNSWTVYKFNPDLFPFIDVYPWPRICRLLKCLVFVFRYLEIIRPL”, for which the “transcriptional activation domain activity” value is 51800. In the case of “RKDKSRVEDSDSADSDAGHVNGNKAGEGEEGAAKKKRKRRHKKRVPDGEGASV” it was 29700; in that of “LQHRTWLIHWSLFPLFNYEQARETLTELFFSAPYINTIQTNCPWILRYLAAAV”, 28100. In the case of “TPQCPPTPTPPPAPASKSRPPPHTPTSTRARNNPPPPSCACGGCTRATSGSRR” it was 33800; in that of “MLPQLIWGCFIFGLASILLCVTFIPNPSHGYIRMRQSYNSFKLYIFGPSFTYL”, 74800.

In the case of “DDPGATPHDPNDPKRPRACEACRGLKVKCEPDPSNPDGPCKRCAKAGRNCVVT”, the “transcriptional activation domain activity” value worked out at 16300. For “GFVLPLFFNSLCPMIPIGFSFVFHFFSHFSFLPIVCFPFPFHLFDTLGSFFFR”, the “transcriptional activation domain activity” value worked out at 33100. The figure for “TASTGTEARNAETTTRRVRSGIVNRRSHAKSRTGCRTCKRRRIKCDESRPSCR” is 22400; for “MTTDNTQKPTISLVEKVDLVFRLLAIAPLRHAIHFTRSLFIAYWRGLPLRLHI” it is 70300; for “VGRLVWFVTLLHVLFWVVQVLKDRRALTGKLVFAYVWQYQKFRFAWVAFLSMT” it is 75200. The figure for “MNRIKSARGRDDGSDGEVRILVVSGPRVREVEWSGVQPAWMAVEVVVVMECPR” is 36800.

As for “VNFLGLMYAPLFVLSNFGAANCQHNALLFKFNMHAFFLCFDLFLLYKTWVVAQ”, the “transcriptional activation domain activity” value stood at 49900. The figure for “QAAFRQRRANYIATLEETGWVVSILLYLHRSSLSFSAVTSLESVVLQLQDSCR” is 53400.

Turning to “VVFVLIIFSLSILPSAPLVKTGALVVLASLLLMPITQQFFLPSLPIWTYLLYF”, the “transcriptional activation domain activity” value came out at 47500. On to “MAFGAVLGLFICDADKVVRADGSRIILMKHPSWKTEIVGLWQTLIAEPWIIML”, for which the “transcriptional activation domain activity” value turned out to be 51400.

“ETEGFAKMAKAMGFGVYGLPSYIIKHIYNNCTHLFVVWHYGTLLIHLTAYPSF”: the “transcriptional activation domain activity” value is 73700.

With “VANILCLSTSLLACSMVFWSIPSWYYLVSHYQEWMPHVILPLYLLWWLFMMLV”, the “transcriptional activation domain activity” value came to 39200. The figure for “KRPRKKKQQKAAAEEAAEPAGSGDEAAAPPEPKKRRKGKLRKEGDKNGNAAPA” is 28500. The figure for “KSYVAILGYIMYPPTTRLVIHIRVWADALRALSSQAMLKTYLLTRGYQFRSIV” is 58900; for “DLARSQKFILCSIKHWGSYLFLFFSCRSFNLFFNHSYFSFCLNISFFLCSVFL” it is 77800.

On to “MTNRLHIVCHICVFYGYILMFQAITSYHYFILLCILILILHLLTFILVYLYKD”, for which the “transcriptional activation domain activity” value was found to be 38400. In the case of “MVFFFFGRRGGCLVGFVVLLSFPLSFFLSFKLCLLLPLYYYSICVFFFSCVFF” it was 55600.

Regarding “NSTPAKVEEEAEAKPEEAKPEGEEVAKEEEEKKDEEPKPAIGDVVPDAVAVGQ”, the “transcriptional activation domain activity” value is 25300.

Regarding “LFHVDLDKMYLMMITLCITWIHACLNVYQIHLLSLLNQWNVISSCLGLLVIVL”, the “transcriptional activation domain activity” value came to 41900. The figure for “MMLVSSRSFLYWYGVSLTLLLLSLEFVWSFLLFFTWLVTLSLFPFLSSVSHCH” is 60200.

As to “MMKVVGFLYQIYLIIYCVGWWFLLLVLFVFSFSFFFFLFFFFLFFSSTFYSLS”, the “transcriptional activation domain activity” value came to 43100. Take “FLWGGRHGFVGFCIPLILLFFMLLSCISFCISILHFFFVLSFLLNFFCEFFLR”: the “transcriptional activation domain activity” value is 36100.

Turning to “MSFFCLFHQLFDISCIFIYLILLENHFSLLCYLLLIFNFNCYFVIFSFLVLNF”, the “transcriptional activation domain activity” value came out at 54800. In the case of “SKKRKIKGGKSRSSSSKSDSSSSSSSSEDGEEKDLSKGVGKRGAKRAKSDDSS” it was 19000; in that of “KQPEPRTRSASPKRAASPAKPVAAEKPAAVAAAAEKPAEKVAEKAAEKPAPAV”, 31400; in that of “ALDDKGNRDAFYSVLVNLMSKLCWAIVQYLESNSLRATYVIEARISEYTKFSI”, 42500.

On to “DNLLGMDYYNIDDLLTQELRDLDIPLVPSPKTGDGSSDKKNIDRTWNLGDENN”, for which the “transcriptional activation domain activity” value came to 79900. As to “MIVLCASFFYILSSLSLFFFFLTLPIMHFLPFSRLFIFSCFLFPLYLFTSFFL”, the “transcriptional activation domain activity” value was found to be 31000. For “KALVDAIITSHNIIIVHNQLIWFPNIVFLMSLIPLHIAAMNLWMALDMLFCFC”, the “transcriptional activation domain activity” value was found to be 52900. In the case of “IGFYFLEYGQNCFRDDSDGPCWAGRYMVNVWNDLAVLRRLICYAAVQLARQHR” it was 40900. In the case of “AANFHDTHGFGSMPQHLKKKPKAEGEGAGKAEEVKAEVSATAEAEESATAKAE” it was 34800; in that of “GSIDITRLGLSFTIIGDLWRQVWWAMLGRDEFASLRKNVSYSRQSLQNLLVTM”, 61800. In the case of “QRNDARLIPGIKYLQLVLGRVRCCREIIAILARNGHRLPKGMLPTLVRLWLLM” it was 35800; in that of “MDEGFFFFCFSFLFLLSPPSSWYFVFSFFLPLNFPSCSLFFVITFFLFLFFFW”, 37900; in that of “SKHRRRHRSSSRERHRHRERDGEPSSSRHRSRRDRSRSKDRSKKEESHRSHRS”, 24500. For the sequence “RQCMLYLIAYFMLQETFGTYFNVTGILQNEYYRPSFGLLPLLMRARIIHYSPL”, the “transcriptional activation domain activity” value is 34600. In the case of “RYLLLSIRDWPCIYIHDLFVFIVSLITDVPDDFLILNFQDLLFFFFVFVFLIF” it was 66200. “MCGLVFLFLFPFVFSSFIGGVAIFFFSYFFYFIYFILQHTRILTCTWSVFLLF”: the “transcriptional activation domain activity” value amounted to 75400. In the case of “EDEEDAVNGTALSEEDAAERDAKLKRLREEAERKALARRSQAVQRGLPRPANV” it was 14900. The figure for “RNLMVIVLVVGNLRLVIENIQKYGVLICIRCHDFRQHDVMLGLLLYFLIPCHL” is 53400; for “MIFFLLFFFSFHQVYFSLFSFRRIFLLSFLLLLLPFLLFACVLFSLLTFCPFL” it is 41900; for “FDRLIPEWAHAWKPVEGIWMLWWIKHQIFFALGVLQLLNQYWFFLILRILVRT” it is 56300. Regarding “MVVIVLQIGVSLYKLLVLLLWYVEWILYLFLLVEDRLLYQNMLLFEAPTLVYT”, the “transcriptional activation domain activity” value came to 63300. For “VRDMPQADPGADRAFDASLESSMRKLLDGLAGTSWPAKTSVWVSKLRIACNHV”, the “transcriptional activation domain activity” value was 61200. The figure for “MLIFYFYFYFYFYLNFFYFFSFVSGWFVLGKDVFVLFLFPFSLSGFSYFVFGY” is 46700. Consider “FTRVDICFRNCYAGGTVVLVYSALAFFLLLMIAMYGNGYHGPFAWMTFTLSTV”, for which the “transcriptional activation domain activity” value amounted to 53000.

The values are drawn from the supplement of paper PMC12636428.
